Test results from patent US20250154240A1 (CHIOME BIOSCIENCE, published 2025).

T1: human CXCL1 protein (human, UniProt P09341 35-107)
T1 construct: also called HuCXCL1
T1 sequence: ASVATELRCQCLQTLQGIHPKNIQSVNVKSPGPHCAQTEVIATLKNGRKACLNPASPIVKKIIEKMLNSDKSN


Assays:
human CXCL1 protein [1] = target: T1, human CXCL1 protein; assay: antigen-immobilized ELISA, HuCXCL1 on the plate, absorbance (upper left panel)
human CXCL1 protein [2] = target: T1, human CXCL1 protein; assay: antigen-immobilized ELISA
human CXCL1 protein [3] = target: T1, human CXCL1 protein; assay: antigen-immobilized ELISA, HuCXCL1 on the plate, absorbance (lower left panel)

binding result (human CXCL1 protein [2]) | Binder | further results
 | Hu1A-7H10 VH1/VL1 (antibody, V domains shown) VH: QVTLKESGPVLVKPTETLTLTCTVSGFSSTTYGVHWVRQPPGKALEWLGVIWAGGSTNYNAALMSRLTISKDTSKSQVVLTMTNMDPVDTATYYCATQYHYPFAYWGQGTLVTVSS VL: DIQMTQSPSSLSASVGDRVTITCKASENVGIYVSWYQQKPGKAPKLMIYGASNRNTGVPSRFSGSGSGTDFTLTISSLQPEDFATYYCGQSYSYPLTFGGGTKVEIK | EC50 (read off the curve) (human CXCL1 protein [1]): ~20 ng/mL
 | Hu1A-7H10 VH2/VL1 (antibody, V domains shown, Humanized antibody) VH: QVTLKESGPVLVKPTETLTLTCTVSGFSSTTYGVHWVRQPPGKALEWLGVIWAGGSTNYNAALMSRLTISKDNSKSQVVLTMTNMDPVDTATYYCATQYHYPFAYWGQGTLVTVSS VL: DIQMTQSPSSLSASVGDRVTITCKASENVGIYVSWYQQKPGKAPKLMIYGASNRNTGVPSRFSGSGSGTDFTLTISSLQPEDFATYYCGQSYSYPLTFGGGTKVEIK | EC50 (read off the curve) (human CXCL1 protein [1]): ~20 ng/mL
 | Hu1A-7H10 VH1/VL2 (antibody, V domains shown, Humanized antibody) VH: QVTLKESGPVLVKPTETLTLTCTVSGFSSTTYGVHWVRQPPGKALEWLGVIWAGGSTNYNAALMSRLTISKDTSKSQVVLTMTNMDPVDTATYYCATQYHYPFAYWGQGTLVTVSS VL: DIQMTQSPSSLSASVGDRVTITCKASENVGIYVSWYQQKPGKAPKLMIYGASNRNTGVPSRFSGSGSATDFTLTISSLQPEDFATYYCGQSYSYPLTFGGGTKVEIK | EC50 (read off the curve) (human CXCL1 protein [1]): ~20 ng/mL
 | Hu1A-7H10 VH2/VL2 (antibody, V domains shown, Humanized antibody) VH: QVTLKESGPVLVKPTETLTLTCTVSGFSSTTYGVHWVRQPPGKALEWLGVIWAGGSTNYNAALMSRLTISKDNSKSQVVLTMTNMDPVDTATYYCATQYHYPFAYWGQGTLVTVSS VL: DIQMTQSPSSLSASVGDRVTITCKASENVGIYVSWYQQKPGKAPKLMIYGASNRNTGVPSRFSGSGSATDFTLTISSLQPEDFATYYCGQSYSYPLTFGGGTKVEIK | EC50 (read off the curve) (human CXCL1 protein [1]): ~20 ng/mL
binds | mh5A-5E11 VH1/VL (antibody, V domains shown) VH: QVQLQQSGAELVRPGSSVKISCKASGYAFSDYWMNWVKQRPGQGLEWIGQIYPGSGDTNYNGKFKGKGTLTADKSSSTAYMQLNSLTSEDSAVYFCARERDYDVAMDYWGQGTSVTVSS VL: DIQMTQSPSSLSASLGGKVTITCKASQDINKYIAWFQHKPGKGPRLVIHYTSILQPGIPSRFSGVGSGRDYSFSIRNLEPEDIATYYCLQYDNLPWTFGGGTKLEIK | 
binds | mh5A-5E11 VH9/VL (antibody, V domains shown) VH: QVQLQQSGAELVRPGSSVKISCKASGYAFSDYWMNWVKQRPGQGLEWIGQIYPGEGDTNYNAKFKGKGTLTADKSSSTAYMQLNSLTSEDSAVYFCARERDYDVAMDYWGQGTSVTVSS VL: DIQMTQSPSSLSASLGGKVTITCKASQDINKYIAWFQHKPGKGPRLVIHYTSILQPGIPSRFSGVGSGRDYSFSIRNLEPEDIATYYCLQYDNLPWTFGGGTKLEIK | 
binds | mh5A-5E11 VH11/VL (antibody, V domains shown) VH: QVQLQQSGAELVRPGSSVKISCKASGYAFSDYWMNWVKQRPGQGLEWIGQIYPGDADTNYNAKFKGKGTLTADKSSSTAYMQLNSLTSEDSAVYFCARERDYDVAMDYWGQGTSVTVSS VL: DIQMTQSPSSLSASLGGKVTITCKASQDINKYIAWFQHKPGKGPRLVIHYTSILQPGIPSRFSGVGSGRDYSFSIRNLEPEDIATYYCLQYDNLPWTFGGGTKLEIK | 
binds | mh5A-5E11 VH4/VL (antibody, V domains shown) VH: QVQLQQSGAELVRPGSSVKISCKASGYAFSDYWMNWVKQRPGQGLEWIGQIYPGDGDTNYSGKFKGKGTLTADKSSSTAYMQLNSLTSEDSAVYFCARERDYDVAMDYWGQGTSVTVSS VL: DIQMTQSPSSLSASLGGKVTITCKASQDINKYIAWFQHKPGKGPRLVIHYTSILQPGIPSRFSGVGSGRDYSFSIRNLEPEDIATYYCLQYDNLPWTFGGGTKLEIK | 
binds | mh5A-5E11 VH10/VL (antibody, V domains shown) VH: QVQLQQSGAELVRPGSSVKISCKASGYAFSDYWMNWVKQRPGQGLEWIGQIYPGDADTNYSGKFKGKGTLTADKSSSTAYMQLNSLTSEDSAVYFCARERDYDVAMDYWGQGTSVTVSS VL: DIQMTQSPSSLSASLGGKVTITCKASQDINKYIAWFQHKPGKGPRLVIHYTSILQPGIPSRFSGVGSGRDYSFSIRNLEPEDIATYYCLQYDNLPWTFGGGTKLEIK | 
binds | mh5A-5E11 VH2/VL (antibody, V domains shown) VH: QVQLQQSGAELVRPGSSVKISCKASGYAFSDYWMNWVKQRPGQGLEWIGQIYPGEGDTNYNGKFKGKGTLTADKSSSTAYMQLNSLTSEDSAVYFCARERDYDVAMDYWGQGTSVTVSS VL: DIQMTQSPSSLSASLGGKVTITCKASQDINKYIAWFQHKPGKGPRLVIHYTSILQPGIPSRFSGVGSGRDYSFSIRNLEPEDIATYYCLQYDNLPWTFGGGTKLEIK | 
binds | mh5A-5E11 VH5/VL (antibody, V domains shown) VH: QVQLQQSGAELVRPGSSVKISCKASGYAFSDYWMNWVKQRPGQGLEWIGQIYPGDGDTNYNAKFKGKGTLTADKSSSTAYMQLNSLTSEDSAVYFCARERDYDVAMDYWGQGTSVTVSS VL: DIQMTQSPSSLSASLGGKVTITCKASQDINKYIAWFQHKPGKGPRLVIHYTSILQPGIPSRFSGVGSGRDYSFSIRNLEPEDIATYYCLQYDNLPWTFGGGTKLEIK | 
 | mh5A-5E11_VH7/VL (antibody, V domains shown) VH: QVQLQQSGAELVRPGSSVKISCKASGYAFSDYWMNWVKQRPGQGLEWIGQIYPGSGDTNYNAKFKGKGTLTADKSSSTAYMQLNSLTSEDSAVYFCARERDYDVAMDYWGQGTSVTVSS VL: DIQMTQSPSSLSASLGGKVTITCKASQDINKYIAWFQHKPGKGPRLVIHYTSILQPGIPSRFSGVGSGRDYSFSIRNLEPEDIATYYCLQYDNLPWTFGGGTKLEIK | EC50 (read off the curve) (human CXCL1 protein [3]): ~20 ng/mL
binds | mh5A-5E11 VH3/VL (antibody, V domains shown) VH: QVQLQQSGAELVRPGSSVKISCKASGYAFSDYWMNWVKQRPGQGLEWIGQIYPGDADTNYNGKFKGKGTLTADKSSSTAYMQLNSLTSEDSAVYFCARERDYDVAMDYWGQGTSVTVSS VL: DIQMTQSPSSLSASLGGKVTITCKASQDINKYIAWFQHKPGKGPRLVIHYTSILQPGIPSRFSGVGSGRDYSFSIRNLEPEDIATYYCLQYDNLPWTFGGGTKLEIK | 
binds | mh5A-5E11 VH6/VL (antibody, V domains shown) VH: QVQLQQSGAELVRPGSSVKISCKASGYAFSDYWMNWVKQRPGQGLEWIGQIYPGSGDTNYSGKFKGKGTLTADKSSSTAYMQLNSLTSEDSAVYFCARERDYDVAMDYWGQGTSVTVSS VL: DIQMTQSPSSLSASLGGKVTITCKASQDINKYIAWFQHKPGKGPRLVIHYTSILQPGIPSRFSGVGSGRDYSFSIRNLEPEDIATYYCLQYDNLPWTFGGGTKLEIK | 
binds | mh5A-5E11 VH8/VL (antibody, V domains shown) VH: QVQLQQSGAELVRPGSSVKISCKASGYAFSDYWMNWVKQRPGQGLEWIGQIYPGEGDTNYSGKFKGKGTLTADKSSSTAYMQLNSLTSEDSAVYFCARERDYDVAMDYWGQGTSVTVSS VL: DIQMTQSPSSLSASLGGKVTITCKASQDINKYIAWFQHKPGKGPRLVIHYTSILQPGIPSRFSGVGSGRDYSFSIRNLEPEDIATYYCLQYDNLPWTFGGGTKLEIK | 
binds | mh4A-2F7 VH/VL2 (antibody, V domains shown) VH: QVTLKESGPGILKPSQTLSLTCSFSGFSLSTSGMGVDWIRQPSGKGLEWLAHIWWDDDKYYNPSLKSQLTISKDTSRNQVFLKITSVDTADTATYYCARSYGYDMDYYAMDYWGQGTSVTVSS VL: DIQMTQSPSSLSASLGERVSLTCRASQEISGYLSWLQQKPDGTIKRLIYAASTLESGVPKRFSGSRSGSDYSLTISSLESEDFADYYCLQYASYPPWTFGGGTKLEIK | 
binds | mh4A-2F7 VH/VL3 (antibody, V domains shown) VH: QVTLKESGPGILKPSQTLSLTCSFSGFSLSTSGMGVDWIRQPSGKGLEWLAHIWWDDDKYYNPSLKSQLTISKDTSRNQVFLKITSVDTADTATYYCARSYGYDMDYYAMDYWGQGTSVTVSS VL: DIQMTQSPSSLSASLGERVSLTCRASQEISGYLSWLQQKPDGTIKRLIYAASTLDAGVPKRFSGSRSGSDYSLTISSLESEDFADYYCLQYASYPPWTFGGGTKLEIK | 
binds | 028-8-12 VH1/VL (antibody, V domains shown, Amino acid-modified human antibody) VH: EVQLLESGGGLVQPGGSLRLSCAASGFTFSELSMSWVRQAPGKGLEWVSAISGSGGSTYYASSVKGRFTISRDNSKNTLYLQMNSLRAEDTAVYYCAREGGRLEPYYYYYAMDVWGQGTPVTVSS VL: DIQMTQSPSSLSASVGDRVTITCRASQSISDNLHWYQQKPGKAPKLLIYDASNLESGVPSRFSGSGSGTDFTLTINSLQPEDFATYYCQQYYSTPLTFGQGTKLEIK | 
binds | 028-8-12 VH/VL1 (antibody, V domains shown, Amino acid-modified human antibody) VH: EVQLLESGGGLVQPGGSLRLSCAASGFTFSELSMSWVRQAPGKGLEWVSAISGSGGSTYYADSVKGRFTISRDNSKNTLYLQMNSLRAEDTAVYYCAREGGRLEPYYYYYAMDVWGQGTPVTVSS VL: DIQMTQSPSSLSASVGDRVTITCRASQSISDNLHWYQQKPGKAPKLLIYDASNLESGVPSRFSGSGSGTDFTLTISSLQPEDFATYYCQQYYSTPLTFGQGTKLEIK | 
binds | 028-8-12 VH2/VL (antibody, V domains shown, Amino acid-modified human antibody) VH: not shown VL: DIQMTQSPSSLSASVGDRVTITCRASQSISDNLHWYQQKPGKAPKLLIYDASNLESGVPSRFSGSGSGTDFTLTINSLQPEDFATYYCQQYYSTPLTFGQGTKLEIK | 
binds | 028-8-12 VH2/VL1 (antibody, V domains shown, Amino acid-modified human antibody) VH: not shown VL: DIQMTQSPSSLSASVGDRVTITCRASQSISDNLHWYQQKPGKAPKLLIYDASNLESGVPSRFSGSGSGTDFTLTISSLQPEDFATYYCQQYYSTPLTFGQGTKLEIK | 
 | mh1A-7H10_VH1/VL (antibody, V domains shown) VH: QVQLKESGPVLVAPSQSLSITCSVSGFSSTTYGVHWVRQPPGQGLEWLGVIWAGGSTNYNAALMSRLSISKDNSKSQVFLKMNSLQTDDTAMYYCATQYHYPFAYWGQGTLVTVSA VL: NIVMTQSPKSMSMSVGERVTLSCKASENVGIYVSWYQQKPEQSPKLMIYGASNRNTGVPDRFTGSGSATDFTLTISSVQAEDLADYYCGQSYSYPLTFGAGTKLELK | EC50 (read off the curve) (human CXCL1 protein [1]): ~20 ng/mL
